{"source": "patent US9364516B2", "about": "“Treatment of fibrosis-related disorders using fibronectin binding proteins and polypeptides” (priority 2010, dated 2016)", "molecules": {"B1": {"name": "pUR4: 49-mer peptide derived from the bacterial F1 adhesin, His tagged, SEQ ID NO:1; class I fibronectin polymerization inhibitor (peptide)", "chain": "MRGSHHHHHHGSKDQSPLAGESGETEYITEVYGNQQNPVDIDKKLPNETGFSGNMVETEDTKLN", "modifications": "His tag; Bacterial adhesin derived peptide pUR4"}}, "key": {"Rat aortic SMCs": {"test_system": "Rat aortic SMCs", "assay": "Fibronectin and collagen I deposition in cultured SMCs (immunostaining)", "format": "cell-based", "conditions": "500 nM peptide, 3 days, serum containing media", "procedure": "FIGS. 1A-1I depict the effect of pUR4 on fibronectin and collagen I deposition in smooth muscle cells (SMCs). Rat aortic SMCs were grown in serum containing media in the absence (FIGS. 1A-1C) or presence of 500 nM pUR4 (FIGS. 1D-1F) or control III-11C (FIGS. 1G-1I) peptides for 3 days. Cell were fixed, and then incubated with a polyclonal antibody to fibronectin (FIGS. 1A, 1D, and 1G) or collagen I (FIGS. 1B, 1E, and 1H). Bar, 20 μm.\nRat aortic smooth muscle cells (RASM) were obtained from Cell Applications (San Diego, Calif.) and maintained in serum containing media (Cell Applications). SMC were used at passages 4-6.\nPrevious data has shown that fibronectin regulates the deposition of other proteins into the ECM, including type I collagen (Sottile et al., “Fibronectin Polymerization Regulates the Composition and Stability of Extracellular Matrix Fibrils and Cell-Matrix Adhesions,” Mol. Biol. Cell. 13:3546-3559 (2002), which is hereby incorporated by reference in its entirety). […] However, there was a trend toward decreased fibronectin and collagen I mRNA in the carotid artery of animals treated with pUR4 in comparison with control peptide-treated animals (Table 3)."}, "[1]": {"test_system": "left carotid artery of FVB mice", "assay": "Carotid ligation flow-induced vascular remodeling, morphometry", "format": "in vivo, mouse", "procedure": "Both sexes of FVB transgenic mice were used for the carotid ligation experiments, since no significant differences in their modeling response were reported between male and female mice. All procedures were approved by the University of Rochester Animal Care Committee, and were performed in accordance with the guidelines of the National Institutes of Health for the care and use of laboratory animals.\nDigital images of Verhoeff-van Gieson elastic stained cross-sections were captured and morphometric analysis was performed using Image-Pro Plus software (Media Cybernetics, Md.). The circumferences of the lumen, internal elastic lamina (IEL) and external elastic lamina (EEL) in the sections were identified using the automatic trace mode in Image-Pro. The accuracy of the automated tracing was verified by visual inspection of the images. Cross-sectional areas of the lumen, neointima, media, adventitia, and the area encompassed by the EEL were measured. Vessel compartment volumes were calculated as described (Intengan et al., “Vascular Remodeling in Hypertension: Roles of Apoptosis, Inflammation, and Fibrosis,” Hypertension 38:581-587 (2001), which is hereby incorporated by reference in its entirety). Briefly, starting with the carotid bifurcation as the origin, a series of cross-sections of 5 μm were cut every 200 μm through the first mm length of the carotid artery. Morphometric analysis was performed at each point, and the average of each division was calculated, summed, and reported as the volume.\nBlood flow in the left carotid artery of 10-week-old FVB/NJ (FVB) mice was reduced by ligating the external and internal carotid arterial branches as described (Korshunov et al., “Flow-Induced Vascular Remodeling in the Mouse: A Model for Carotid Intima-Media Thickening,” Arterioscler. Thromb. Vasc. Biol. 23:2185-2191 (2003), which is hereby incorporated by reference in its entirety). Mice were anesthetized with an intraperitoneal injection of ketamine (80 mg/kg) and xylazine (5 mg/kg) as described in the above-cited referenced. The left common carotid artery was dissected free of the surrounding connective tissue and 50 μL of F-127 pluronic gel (BASF) containing 20 μmol/L pUR4 or III-11C was applied around the carotid artery. Animals were separated into 5 groups containing 5 to 10 animals each: (1) sham-operated, in which the branches of the left carotid artery were exposed and dissected out, but not ligated; (2) ligation; (3) ligation with pluronic gel; (4) ligation with pluronic gel containing III-11C; (5) ligation with pluronic gel containing pUR4.\nBlood flow in the left and right common carotid artery was measured using an ultrasonic transit-time volume flowmeter (Transonic Systems) before sacrifice. Animals were perfusion-fixed with 10% formalin 7 or 14 days after surgery. The common carotid arteries were harvested and embedded in paraffin. Cross-sections of 5 μm were cut from the bifurcation every 200 μm through the first mm length of the carotid artery as described (Korshunov et al., “Flow-Induced Vascular Remodeling in the Mouse: a Model for Carotid Intima-Media Thickening,” Arterioscler. Thromb. Vasc. Biol. 23:2185-2191 (2003), which is hereby incorporated by reference in its entirety). Sections were stained with Verhoeff-van Gieson elastic stain, and then subjected to morphometric analysis. […]"}, "human saphenous veins": {"test_system": "human saphenous veins", "assay": "Ex vivo cultured human saphenous veins, intimal thickening", "conditions": "15 μM, 14 days culture in 10% FBS/M199", "procedure": "Saphenous veins were cut into 0.5 cm segments, and processed immediately (●) or cultured in 10% FBS/M199 containing 15 μM control III-11c peptide (▪) or pUR4 (▴) at 37° C. for 14 days. Veins were fixed, paraffin embedded, sectioned, and stained. Morphometric analysis was performed on six randomly chosen sections using Image-Pro Plus software. The intima/media ratio was determined by dividing intima area by media area. Paired student t-test was used to analyze the data. Data are expressed as mean±S.E.M. *p<0.05.\nHuman saphenous veins cultured in serum containing media develop intimal hyperplasia after 14 days in culture (Soyombo et al., “Intimal Proliferation in an Organ Culture of Human Saphenous Vein,” Am J Pathol. 137(6):1401-1410 (1990); Angelini et al., “Smooth Muscle Cell Proliferation in Response to Injury in an Organ Culture of Human Saphenous Vein,” Eur J Vasc Surg. 5(1):5-12 (1991); and Slomp et al., “Nature and Origin of the Neointima in Whole Vessel Wall Organ Culture of the Human Saphenous Vein,” Virchows Arch. 428(1):59-67 (1996), which are hereby incorporated by reference in their entirety). This system thus provides an ex vivo model system for studying mechanisms that lead to intimal hyperplasia that has distinct advantages over in vitro culture systems. […]"}, "[2]": {"test_system": "fibronectin binding to the cell surface", "assay": "Inhibition of fibronectin binding to the cell surface", "format": "cell-based"}, "[3]": {"conditions": "vessel compartments analyzed separately"}}}
{"molecule": "B1", "values": [{"measurement": "deposition of endogenous collagen I into matrix fibrils", "setting": "Rat aortic SMCs", "value": "inhibited"}, {"measurement": "deposition of endogenous fibronectin into the ECM", "setting": "Rat aortic SMCs", "value": "inhibited"}, {"measurement": "increase in lumen volume after ligation", "setting": "[1]; 20 μmol/L in pluronic gel, periadventitial", "value": "prevented"}, {"measurement": "carotid (vascular) remodeling", "setting": "[1]; 20 μmol/L in pluronic gel, periadventitial, 14 days after ligation", "value": "dramatically reduced"}, {"measurement": "effect on IMT at 7 days", "setting": "[1]; 7 days after ligation", "value": "no statistical effect"}, {"measurement": "inhibition of adventitial thickening compared to III-11C", "setting": "[1]; 14 days after ligation", "value": 38, "unit": "%"}, {"measurement": "reduction of extent of IMT (intima-media thickening) vs control peptide", "setting": "[1]; 14 days after ligation", "value": 40, "unit": "%"}, {"measurement": "remodeling index, pUR4 vs III-11C", "setting": "[1]; mouse, in vivo", "value": "not different"}, {"measurement": "outward remodeling (EEL volume)", "setting": "[1]; no difference in EEL volume vs shams 7 days post ligation", "value": "prevented"}, {"measurement": "reduction of intima thickening", "setting": "[1]; [3]", "value": 63, "unit": "%"}, {"measurement": "reduction of media thickening", "setting": "[1]; [3]", "value": 27, "unit": "%"}, {"measurement": "intima/media ratio", "setting": "human saphenous veins", "value": "decreases"}, {"measurement": "EC50", "setting": "[2]", "value": 10, "unit": "nM"}]}
